# Patent publication US10766960 (dated 2020)
# T1: FcgRIIa H (human, UniProt P12318)
# T1 chain: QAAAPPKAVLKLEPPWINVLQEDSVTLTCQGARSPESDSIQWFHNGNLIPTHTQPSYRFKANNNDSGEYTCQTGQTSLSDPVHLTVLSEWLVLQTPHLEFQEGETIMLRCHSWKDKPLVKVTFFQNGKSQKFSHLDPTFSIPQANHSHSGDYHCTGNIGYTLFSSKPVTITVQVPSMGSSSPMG
# T2: FcgRIIb (human, UniProt P31994)
# T2 chain: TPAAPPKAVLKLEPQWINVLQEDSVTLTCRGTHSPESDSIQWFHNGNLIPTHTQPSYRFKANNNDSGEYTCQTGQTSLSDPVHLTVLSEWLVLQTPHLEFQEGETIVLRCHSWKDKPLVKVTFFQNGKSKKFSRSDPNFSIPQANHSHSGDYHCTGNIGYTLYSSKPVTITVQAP
# T3: FcgRIIa R (human, UniProt P12318)
# T3 chain: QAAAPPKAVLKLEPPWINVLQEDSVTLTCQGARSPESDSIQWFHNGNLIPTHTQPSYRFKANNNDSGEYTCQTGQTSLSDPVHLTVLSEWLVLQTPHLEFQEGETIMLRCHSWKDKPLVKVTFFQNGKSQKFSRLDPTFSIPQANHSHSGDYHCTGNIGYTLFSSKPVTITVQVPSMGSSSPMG
# T4: FcgRIa (human, UniProt P12314)
# T4 chain: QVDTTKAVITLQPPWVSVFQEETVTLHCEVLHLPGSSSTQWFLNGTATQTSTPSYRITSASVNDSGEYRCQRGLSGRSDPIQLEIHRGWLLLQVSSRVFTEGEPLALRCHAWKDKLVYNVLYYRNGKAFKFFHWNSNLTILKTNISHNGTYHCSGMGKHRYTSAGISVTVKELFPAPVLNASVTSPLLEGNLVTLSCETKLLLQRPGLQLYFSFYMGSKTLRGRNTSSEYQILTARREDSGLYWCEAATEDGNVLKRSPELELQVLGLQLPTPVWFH
# Key:
# Assay in all cases: SPR
# [1] = target: T1, FcgRIIa H
# [2] = target: FcgRIIIa F (human, UniProt P08637)
# [3] = target: FcgRIIIa V (human, UniProt P08637)
# [4] = target: T2, FcgRIIb
# [5] = target: T3, FcgRIIa R
# [6] = target: T4, FcgRIa
# FcgRIIIa V, sequence (P08637 17-208 F176V): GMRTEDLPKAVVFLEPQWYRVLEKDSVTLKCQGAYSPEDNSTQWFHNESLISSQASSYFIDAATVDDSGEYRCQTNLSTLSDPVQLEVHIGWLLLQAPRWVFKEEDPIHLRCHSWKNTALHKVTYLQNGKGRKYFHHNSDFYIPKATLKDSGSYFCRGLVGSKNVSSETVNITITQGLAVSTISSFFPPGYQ
# FcgRIIIa F, sequence (P08637 17-208): as the sequence (P08637 17-208 F176V) above, with V160F counted along it
Binder,Kd [1] [nM],Kd [2] [nM],Kd [3] [nM],Kd [4] [nM],Kd [5] [nM],Kd [6] [nM]
H240-Kn179/H240-Hl089/L73-k0 (antibody) chain 1: QDQLVQSGAEVKKPGASVKVSCKASGFNIKDTYIQWVRQAPGQGLEWMGRIDPLRKQTKYREKFEGRVTITADTSTNTAYMELSSLRSEDTAVYYCVRSGREFDYWGQGTLVTVSSASTKGPSVFPLAPSSKSTSGGTAALGCLVKDYFPEPVTVSWNSGALTSGVHTFPAVLQSSGLYSLSSVVTVPSSSLGTQTYICNVNHKPSNTKVDKKVEPKSCDKTHTCPPCPAPEYYWGPMVFLFPPKPKDTLMISRTPEVTCVVVDVSDEDPEVKFNWYVDGVEVHNAKTKPREKQYNATYRVVSVLTVLHQDWLNGKEYKCKVSNKDLPAPIEKTISKAKGQPREPQVCTLPPSRDELTKNQVSLWCLVKGFYPSDIAVEWESNGQPENNYKTTPPVLDSDGSFFLYSKLTVDKSRWQQGNVFSCSVMHEALHNHYTQKSLSLSP chain 2: QDQLVQSGAEVKKPGASVKVSCKASGFNIKDTYIQWVRQAPGQGLEWMGRIDPLRKQTKYREKFEGRVTITADTSTNTAYMELSSLRSEDTAVYYCVRSGREFDYWGQGTLVTVSSASTKGPSVFPLAPSSKSTSGGTAALGCLVKDYFPEPVTVSWNSGALTSGVHTFPAVLQSSGLYSLSSVVTVPSSSLGTQTYICNVNHKPSNTKVDKKVEPKSCDKTHTCPPCPAPELLTGPSVFLFPPKPKDTLMISRTPEVTCVVVDVSHEEPEVKFNWYVDGVEVHNAKTKPREEQYNSTYRVVSVLTVLHQDWLNGKEYKCKVSNDALPKPIEETISKAKGQPREPQVYTLPPSRCELTKNQVSLSCAVKGFYPSDIAVEWESNGQPENNYKTTPPVLDSDGSFFLVSKLTVDKSRWQQGNVFSCSVMHEALHNHYTQKSLSLSP chain 3: DIQMTQSPSSLSASVGDRVTITCRASQDIHKYIAWYQQKPGQAPRLLIQYTSTLQPGVPSRFSGSGSGTDYTFTISSLQPEDIATYYCLQYEQLRTFGGGTKVEIKRTVAAPSVFIFPPSDEQLKSGTASVVCLLNNFYPREAKVQWKVDNALQSGNSQESVTEQDSKDSTYSLSSTLTLSKADYEKHKVYACEVTHQGLSSPVTKSFNRGEC,47,39,18,400,18,0.46
H240-Kn192/H240-Hl204/L73-k0 (antibody) chain 1: QDQLVQSGAEVKKPGASVKVSCKASGFNIKDTYIQWVRQAPGQGLEWMGRIDPLRKQTKYREKFEGRVTITADTSTNTAYMELSSLRSEDTAVYYCVRSGREFDYWGQGTLVTVSSASTKGPSVFPLAPSSKSTSGGTAALGCLVKDYFPEPVTVSWNSGALTSGVHTFPAVLQSSGLYSLSSVVTVPSSSLGTQTYICNVNHKPSNTKVDKKVEPKSCDKTHTCPPCPAPEYNWGPMVFLFPPKPKDTLMISRTPEVTCVVVDVSDEDPEVKFNWYVDGVEVHNAKTKPREKQYNATYRVVSVLTVLHQDWLNGKEYKCKVSNKDLPAPIEKTISKAKGQPREPQVCTLPPSRDELTKNQVSLWCLVKGFYPSDIAVEWESNGQPENNYKTTPPVLDSDGSFFLYSKLTVDKSRWQQGNVFSCSVMHEALHNHYTQKSLSLSP chain 2: QDQLVQSGAEVKKPGASVKVSCKASGFNIKDTYIQWVRQAPGQGLEWMGRIDPLRKQTKYREKFEGRVTITADTSTNTAYMELSSLRSEDTAVYYCVRSGREFDYWGQGTLVTVSSASTKGPSVFPLAPSSKSTSGGTAALGCLVKDYFPEPVTVSWNSGALTSGVHTFPAVLQSSGLYSLSSVVTVPSSSLGTQTYICNVNHKPSNTKVDKKVEPKSCDKTHTCPPCPAPELLTGPSVFLFPPKPKDTLMISRTPEVTCVVVDVSHEEPEVKFNWYVDGVEVHNAKTKPREEQYNSTYRVVSVLTVLHQDWLNGKEYKCKVSNDALPKPEEETISKAKGQPREPQVYTLPPSRCELTKNQVSLSCAVKGFYPSDIAVEWESNGQPENNYKTTPPVLDSDGSFFLVSKLTVDKSRWQQGNVFSCSVMHEALHNHYTQKSLSLSP chain 3: DIQMTQSPSSLSASVGDRVTITCRASQDIHKYIAWYQQKPGQAPRLLIQYTSTLQPGVPSRFSGSGSGTDYTFTISSLQPEDIATYYCLQYEQLRTFGGGTKVEIKRTVAAPSVFIFPPSDEQLKSGTASVVCLLNNFYPREAKVQWKVDNALQSGNSQESVTEQDSKDSTYSLSSTLTLSKADYEKHKVYACEVTHQGLSSPVTKSFNRGEC,42,12,2.2,290,19,< 0.019
H240-Kn193/H240-Hl204/L73-k0 (antibody) chain 1: QDQLVQSGAEVKKPGASVKVSCKASGFNIKDTYIQWVRQAPGQGLEWMGRIDPLRKQTKYREKFEGRVTITADTSTNTAYMELSSLRSEDTAVYYCVRSGREFDYWGQGTLVTVSSASTKGPSVFPLAPSSKSTSGGTAALGCLVKDYFPEPVTVSWNSGALTSGVHTFPAVLQSSGLYSLSSVVTVPSSSLGTQTYICNVNHKPSNTKVDKKVEPKSCDKTHTCPPCPAPEYNWGPMVFLFPPKPKDTLMISRTPEVTCVVVDVSDEDPEVKFNWYVDGVEVHNAKTKPRERQYNATYRVVSVLTVLHQDWLNGKEYKCKVSNKDLPAPIEKTISKAKGQPREPQVCTLPPSRDELTKNQVSLWCLVKGFYPSDIAVEWESNGQPENNYKTTPPVLDSDGSFFLYSKLTVDKSRWQQGNVFSCSVMHEALHNHYTQKSLSLSP chain 2: QDQLVQSGAEVKKPGASVKVSCKASGFNIKDTYIQWVRQAPGQGLEWMGRIDPLRKQTKYREKFEGRVTITADTSTNTAYMELSSLRSEDTAVYYCVRSGREFDYWGQGTLVTVSSASTKGPSVFPLAPSSKSTSGGTAALGCLVKDYFPEPVTVSWNSGALTSGVHTFPAVLQSSGLYSLSSVVTVPSSSLGTQTYICNVNHKPSNTKVDKKVEPKSCDKTHTCPPCPAPELLTGPSVFLFPPKPKDTLMISRTPEVTCVVVDVSHEEPEVKFNWYVDGVEVHNAKTKPREEQYNSTYRVVSVLTVLHQDWLNGKEYKCKVSNDALPKPEEETISKAKGQPREPQVYTLPPSRCELTKNQVSLSCAVKGFYPSDIAVEWESNGQPENNYKTTPPVLDSDGSFFLVSKLTVDKSRWQQGNVFSCSVMHEALHNHYTQKSLSLSP chain 3: DIQMTQSPSSLSASVGDRVTITCRASQDIHKYIAWYQQKPGQAPRLLIQYTSTLQPGVPSRFSGSGSGTDYTFTISSLQPEDIATYYCLQYEQLRTFGGGTKVEIKRTVAAPSVFIFPPSDEQLKSGTASVVCLLNNFYPREAKVQWKVDNALQSGNSQESVTEQDSKDSTYSLSSTLTLSKADYEKHKVYACEVTHQGLSSPVTKSFNRGEC,35,11,1.8,290,16,< 0.024
